Measurements from the supplement of paper PMC10567573.

B1: FBXO3 (parent)
chain: DEEERRRRVFDVPIRRRRCSRLF
B2: MFF (parent)
chain: YTEGISQRMRVPEKLKVAPPNADL

Variants of: B1
Assay: protein stability index of a GFP-peptide fusion (GPS, HEK-293T) (PSI 1-6); higher = more stable
Details: c terminus: native
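Also: lentivirally expressed fusions sorted by FACS into six bins by GFP to DsRed ratio, PSI derived from sequencing read proportions per bin multiplied by bin number.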

Protein stability index: each site, then its substitutions
D1: N 2.05 | E 3.14 | T 2.2 | P 2.55 | S 1.85 | I 2.83 | H 1.87 | K 2.27 | M 2.97 | L 1.97 | C 1.58 | Q 1.69 | G 1.91 | A 2.65 | F 1.92

Variants of: B2
Assay: as above
Details: c terminus: a fixed tail appended

Protein stability index, by site and new letter:
M9: T 2.74 | L 3.22 | R 2.54 | Q 2.79 | S 2.55 | P 3.27 | E 2.89 | G 2.89 | W 2.01 | K 3.37 | N 2.96 | I 2.2 | C 2.49 | H 3.17 | F 3.02 | D 3.57 | A 2.41 | Y 2.57 | V 2.35
P19: E 2.56 | R 2.43 | G 2.78 | I 2.52 | K 2.71 | V 3.29 | M 2.32 | D 3.37 | S 2.62 | N 2.78 | H 2.54 | C 3.25 | A 2.51 | T 2.51 | Q 2.67 | Y 2.33 | F 2.44 | L 3.41 | W 1.91
R8: F 1.95 | V 2.6 | H 2.28 | E 3.6 | Q 2.79 | I 1.57 | S 2.43 | Y 1.75 | M 2.16 | P 2.81 | G 2.47 | T 2.76 | D 3.76 | L 2.2 | K 2.52 | N 3.18 | W 2.3
L15: W 2.51 | S 3.15 | I 2.69 | Y 3.12 | E 3.36 | D 3.08 | F 2.53 | R 2.58 | V 3.09 | H 2.91 | T 2.71 | G 3.38 | N 2.99 | A 3.15 | C 2.44 | K 3.19 | Q 3.06 | P 3.05 | M 2.59
A22: E 3.33 | W 2.45 | Y 2.56 | V 3.09 | M 2.68 | R 2.77 | S 2.87 | F 2.83 | I 2.45 | N 2.92 | C 2.62 | H 2.69 | L 2.39 | K 3.28 | D 3.34 | G 2.96 | Q 2.81 | T 2.91 | P 2.9
L24: N 3.08 | V 2.61 | E 3.74 | Q 3.14 | W 2.14 | S 2.86 | M 2.91 | Y 2.6 | A 3 | T 2.95 | C 2.87 | F 2.49 | K 3 | D 3.88 | P 2.92 | H 3.52 | G 2.91 | I 2.8 | R 2.89
D23: C 2.47 | G 2.72 | I 2.29 | Q 2.36 | V 2.12 | F 2.47 | K 2.63 | M 2.51 | T 2.38 | H 2.95 | E 2.36 | S 2.11 | L 2.02 | Y 2.57 | A 2.34 | W 2.23 | N 2.65 | R 2.95
A18: C 2.77 | S 2.85 | V 2.72 | R 2.67 | F 2.2 | Q 3.24 | K 2.59 | H 3.88 | T 3.03 | M 2.89 | E 3.03 | I 3.15 | L 2.88 | D 3.19 | W 2.23 | G 2.54 | N 2.78 | Y 2.59 | P 2.89
V17: Q 2.95 | W 2.35 | D 3.18 | F 2.6 | S 2.48 | L 2.88 | N 2.85 | Y 2.3 | T 2.89 | K 3.29 | H 2.9 | C 2.18 | E 3.25 | R 3.22 | M 2.75 | G 2.65 | P 3.31 | I 2.54 | A 2.82
K14: C 3.07 | A 3.06 | F 2.96 | G 3.28 | L 2.87 | Q 3.41 | D 3.13 | I 2.71 | N 3.44 | W 2.11 | S 3.38 | H 2.88 | R 3.55 | V 2.72 | E 3.17 | T 3.06 | P 3.32 | Y 2.44 | M 3.39
E13: P 2.65 | C 2.53 | L 2.33 | K 2.2 | V 2.79 | M 2.64 | D 2.86 | T 2.57 | A 2.95 | F 2.35 | S 3.18 | W 2.16 | I 2.49 | N 2.53 | G 2.18 | Y 2.54 | Q 2.65 | R 2.9 | H 2.98
P12: R 2.82 | Y 2.58 | A 3.06 | K 2.57 | G 2.46 | N 2.96 | E 2.69 | C 2.14 | Q 2.78 | S 2.53 | W 2.46 | T 2.09 | I 2.21 | L 2.42 | D 2.73 | M 2.59 | V 2.64 | H 2.77 | F 1.88
N21: V 3.09 | H 2.91 | S 3.24 | W 2 | I 2.34 | K 2.99 | D 3.1 | Q 2.9 | E 2.87 | R 3.19 | C 2.33 | Y 2.5 | G 2.72 | T 2.71 | M 2.67 | L 2.09 | A 3.21 | F 2.25
R10: G 2.83 | H 2.52 | Y 2.08 | L 3.06 | S 2.72 | Q 3.11 | K 3.16 | T 2.6 | E 2.83 | A 2.17 | I 2.97 | M 2.48 | F 1.44 | D 2.71 | N 2.59 | C 2.74 | P 3.44 | V 2.49 | W 3.33
V11: I 2.96 | A 2.89 | F 2.7 | Q 2.62 | H 2.96 | P 2.78 | D 2.75 | L 2.59 | N 2.91 | E 2.84 | C 2.8 | S 3.29 | Y 2.6 | M 3.11 | G 2.9 | K 2.76 | T 3.24 | W 2.18 | R 2.48
P20: I 2.75 | A 2.98 | G 2.91 | K 3.51 | S 2.65 | V 3.06 | F 2.01 | C 2.44 | N 3.12 | Q 3.44 | T 2.69 | E 3.55 | R 2.75 | Y 2.04 | W 2.35 | D 3.04 | H 2.69 | L 2.24 | M 2.66
K16: Y 2.81 | H 3.21 | Q 2.67 | N 3.33 | R 2.34 | D 3.87 | F 2.8 | A 2.68 | L 2.62 | V 2.9 | I 3.23 | E 2.93 | W 2.49 | T 3.16 | M 2.77 | G 3.27 | C 2.81 | S 3.62 | P 2.83
